Results from patent US20040152079A1.

Molecular target: PMN receptor for mini TyrRS (on human PMNs) (human)
Experiment: competition with ^125I-mini TyrRS on human PMNs (FIG. 10)

fold of the dissociation constant against human mini TyrRS: < 200 fold
Substance: S. cerevisiae TyrRS (from UniProt P36421 1-394) (enzyme)
